Source: US20240060126

How the values were obtained:
[1] = molecular target: MspA-((Del-F80/S81/G112/V13)D56N/E59R/G75S/G77S/L88N/D90N/D91N/D118R/Q126R/D134R/E139K)8
[2] = molecular target: MspA-((Del-G75N76/A117/D118)D56N/E59R/G77S/L88N/D90N/D91N/Q126R/D134R/E139K)8
[3] = molecular target: MspA-((Del-L74/G75/D118/L119)D56N/E57D/E59R/L88N/D90N/D91N/Q126R/D134R/E139K)8
[4] = molecular target: MspA-((Del-L74/G75/D118/L119)D56N/E59R/L88N/D90N/D91N/Q126R/D134N/E139K)8
[5] = molecular target: MspA-((Del-L74/G75/D118/L119)D56N/E59W/L88N/D90N/D91N/Q126R/D134R/E139K)8
[6] = molecular target: MspA-((Del-L74/G75/D118/L119)D56N/E59Y/L88N/D90N/D91N/Q126R/D134R/E139K)8
[7] = molecular target: MspA-((Del-L74/G75/D118/L119)D56N/L88N/D90N/D91N/Q126R/D134R/E139K)8
[8] = molecular target: MspA-((Del-L74/G75/D118/L119)D56W/E59R/L88N/D90N/D91N/Q126R/D134R/E139K)8
[9] = molecular target: MspA-((Del-L74/G75/D118/L119)D56Y/E59R/L88N/D90N/D91N/Q126R/D134R/E139K)8
[10] = molecular target: MspA-((Del-L74/G75/D118/L119)E57R/E59N/L88N/D90N/D91N/Q126R/D134R/E139K)8
[11] = molecular target: MspA-((Del-L74/G75/D118/L119)E59N/L88N/D90N/D91N/Q126R/D134R/E139K)8
[12] = molecular target: MspA-((Del-L74/G75/D118/L119)E59R/L88N/D90N/D91N/Q126R/D134R/E139K)8
[13] = molecular target: MspA-((Del-L74/G75/D118/L119)G1A/D56N/E59F/L88N/D90N/D91N/Q126R/D134R/E139K)8
[14] = molecular target: MspA-((Del-N79/F80N113N114)D56N/E59R/G75S/G77S/L88N/D90N/D91N/D118R/Q126R/D134R/E139K)8

B1: T4 Dda-E94C/C109A/C136A/A360C (SEQ ID NO: 24 with mutations E94C/C109A/C136A/A360C) (protein)
chain: MTFDDLTEGQKNAFNIVMKAIKEKKHHVTINGPAGTGKTTLTKFIIEALISTGETGIILAAPTHAAKKILSKLSGKEASTIHSILKINPVTYECNVLFEQKEVPDLAKARVLICDEVSMYDRKLFKILLSTIPPWATIIGIGDNKQIRPVDPGENTAYISPFFTHKDFYQCELTEVKRSNAPIIDVATDVRNGKWIYDKVVDGHGVRGFTGDTALRDFMVNYFSIVKSLDDLFENRVMAFTNKSVDKLNSIIRKKIFETDKDFIVGEIIVMQEPLFKTYKIDGKPVSEIIFNNGQLVRIIEAEYTSTFVKARGVPGEYLIRHWDLTVETYGDDEYYREKIKIISSDEELYKFNLFLGKTCETYKNWNKGGKAPWSDFWDAKSQFSKVKALPASTFHKAQGMSVDRAFIYTPCIHYADVELAQQLLYVGVTRGRYDVFYV
- Average Signal to Noise (S2N) [1]: 13
- Mean Current Range [1]: 17.1 pA
- Mean Noise of the Signal [1]: 1.32
- Median Current Range [1]: 17.1 pA
- Median Noise of the Signal [1]: 1.22
- Standard Deviation of the Current Range [1]: 2.11 pA
- Standard Deviation of the Noise of the Signal [1]: 0.32
- Average Signal to Noise (S2N) [2]: 12.5
- Mean Current Range [2]: 15.8 pA
- Mean Noise of the Signal [2]: 1.27
- Median Current Range [2]: 15.8 pA
- Median Noise of the Signal [2]: 1.21
- Standard Deviation of the Current Range [2]: 1.69 pA
- Standard Deviation of the Noise of the Signal [2]: 0.24
- Average Signal to Noise (S2N) [3]: 12.9
- Mean Current Range [3]: 15.4 pA
- Mean Noise of the Signal [3]: 1.19
- Median Current Range [3]: 15.4 pA
- Median Noise of the Signal [3]: 1.16
- Median S2N [3]: 11.9
- Percentage of complement slipping forwards [3]: 0.7%
- Standard Deviation of S2N [3]: 0.33
- Standard Deviation of the Current Range [3]: 1.77 pA
- Standard Deviation of the Noise of the Signal [3]: 0.19
- Average Signal to Noise (S2N) [4]: 12.2
- Mean Current Range [4]: 16 pA
- Mean Noise of the Signal [4]: 1.31
- Median Current Range [4]: 16.1 pA
- Median Noise of the Signal [4]: 1.27
- Median S2N [4]: 12
- Percentage of complement slipping forwards [4]: 0.65%
- Standard Deviation of S2N [4]: 0.57
- Standard Deviation of the Current Range [4]: 1.93 pA
- Standard Deviation of the Noise of the Signal [4]: 0.21
- Average Signal to Noise (S2N) [5]: 11
- Mean Current Range [5]: 15.2 pA
- Mean Noise of the Signal [5]: 1.38
- Median Current Range [5]: 15.1 pA
- Median Noise of the Signal [5]: 1.32
- Standard Deviation of the Current Range [5]: 1.85
- Standard Deviation of the Noise of the Signal [5]: 0.26
- Average Signal to Noise (S2N) [6]: 10.7
- Mean Current Range [6]: 15.9 pA
- Mean Noise of the Signal [6]: 1.48
- Median Current Range [6]: 15.9 pA
- Median Noise of the Signal [6]: 1.43
- Median S2N [6]: 10.4
- Percentage of complement slipping forwards [6]: 0.3%
- Standard Deviation of S2N [6]: 0.66
- Standard Deviation of the Current Range [6]: 1.92 pA
- Standard Deviation of the Noise of the Signal [6]: 0.24
- slips forward per kilobase [6]: less than 5 slips forward per kilobase
- Average Signal to Noise (S2N) [7]: 12.3
- Mean Current Range [7]: 14.7 pA
- Mean Noise of the Signal [7]: 1.2
- Median Current Range [7]: 14.6 pA
- Median Noise of the Signal [7]: 1.17
- Standard Deviation of the Current Range [7]: 1.66 pA
- Standard Deviation of the Noise of the Signal [7]: 0.15
- Average Signal to Noise (S2N) [8]: 10.7
- Mean Current Range [8]: 14.4 pA
- Mean Noise of the Signal [8]: 1.35
- Median Current Range [8]: 14.3 pA
- Median Noise of the Signal [8]: 1.28
- Median S2N [8]: 11.9
- Percentage of complement slipping forwards [8]: 0.25%
- Standard Deviation of S2N [8]: 0.33
- Standard Deviation of the Current Range [8]: 1.79
- Standard Deviation of the Noise of the Signal [8]: 0.26
- Average Signal to Noise (S2N) [9]: 12.9
- Mean Current Range [9]: 15.9 pA
- Mean Noise of the Signal [9]: 1.24
- Median Current Range [9]: 15.9 pA
- Median Noise of the Signal [9]: 1.19
- Median S2N [9]: 13.3
- Percentage of complement slipping forwards [9]: 0.6%
- Standard Deviation of S2N [9]: 1.12
- Standard Deviation of the Current Range [9]: 1.83 pA
- Standard Deviation of the Noise of the Signal [9]: 0.22
- Average Signal to Noise (S2N) [10]: 10.6
- Mean Current Range [10]: 14.7 pA
- Mean Noise of the Signal [10]: 1.4
- Median Current Range [10]: 14.6 pA
- Median Noise of the Signal [10]: 1.22
- Standard Deviation of the Current Range [10]: 1.88
- Standard Deviation of the Noise of the Signal [10]: 0.45
- Average Signal to Noise (S2N) [11]: 13.3
- Mean Current Range [11]: 14.7 pA
- Mean Noise of the Signal [11]: 1.11
- Median Current Range [11]: 14.7 pA
- Median Noise of the Signal [11]: 1.08
- Standard Deviation of the Current Range [11]: 2.36 pA
- Standard Deviation of the Noise of the Signal [11]: 0.19
- Average Signal to Noise (S2N) [12]: 12.8
- Mean Current Range [12]: 16.1 pA
- Mean Noise of the Signal [12]: 1.26
- Median Current Range [12]: 16.2 pA
- Median Noise of the Signal [12]: 1.22
- Standard Deviation of the Current Range [12]: 1.84 pA
- Standard Deviation of the Noise of the Signal [12]: 0.24
- slips forward per kilobase [13]: less than 5 slips forward per kilobase
- Average Signal to Noise (S2N) [14]: 13.1
- Mean Current Range [14]: 15.8 pA
- Mean Noise of the Signal [14]: 1.21
- Median Current Range [14]: 15.8 pA
- Median Noise of the Signal [14]: 1.13
- Standard Deviation of the Current Range [14]: 1.9 pA
- Standard Deviation of the Noise of the Signal [14]: 0.28
